From patent publication US20250197476A1

Assays:
[1] = biological target: Fc gamma receptors of NK cells; assay: cytofluorometry, NK cells, 10 µg/ml, 30 min at 37 °C
[2] = biological target: Fc gamma receptors of human macrophages; assay: cytofluorometry, human macrophages with 5 µg/ml hybrid for 2 h at 37 °C, anti-Fc-FITC
[3] = biological target: Fc gamma receptors of human macrophages; assay: cytofluorometry, human macrophages with 5 µg/ml hybrid for 20 h at 37 °C, anti-Fc-FITC
[4] = biological target: Fc gamma receptors of NK cells; assay: cytofluorometry, NK cells, 48 h at 37 °C
[5] = biological target: Fc gamma receptors of NK cells; assay: cytofluorometry, NK cells, 24 h at 37 °C
[6] = biological target: Fc gamma receptors of NK cells; assay: cytofluorometry, NK cells, 30 min at 37 °C
[7] = biological target: Fc gamma receptors of NK cells; assay: cytofluorometry, NK cells, 10 µg/ml, no competing IgG (same values as Table 9)
[8] = biological target: Fc gamma receptors of NK cells; assay: competition, cytofluorometry on NK cells; human IgG at 100 µg/ml against FcSDHFSTIE-N3-DBCO-A647 at 10 µg/ml
[9] = biological target: Fc gamma receptors of NK cells; assay: competition, cytofluorometry on NK cells; human IgG at 10000 µg/ml against FcSDHFSTIE-N3-DBCO-A647 at 10 µg/ml
[10] = biological target: Fc gamma receptors of NK cells; assay: competition, cytofluorometry on NK cells; human IgG at 10 µg/ml against FcSDHFSTIE-N3-DBCO-A647 at 10 µg/ml
[11] = biological target: Fc gamma receptors of NK cells; assay: competition, cytofluorometry on NK cells; human IgG at 1000 µg/ml against FcSDHFSTIE-N3-DBCO-A647 at 10 µg/ml
[12] = biological target: Fc gamma receptors of NK cells; assay: competition, cytofluorometry on NK cells; human IgG at 1 µg/ml against FcSDHFSTIE-N3-DBCO-A647 at 10 µg/ml

FcLALAPG-N3-DBCO-A647 (from UniProt P01857 104-330)
MFI [1]: 450

FcLALAPG-N3-DBCO-β60-74Cit (from UniProt P01857 104-330)
fluorescence (Macrophages) [2]: 502
fluorescence (Macrophages) [3]: 404

FcSDHFSTIE-N3-DBCO-A488 (from UniProt P01857 104-330)
MFI [4]: 1710
MFI [5]: 2350
MFI [6]: 2970

FcSDHFSTIE-N3-DBCO-A647 (from UniProt P01857 104-330)
MFI [7]: 38500
MFI [1]: 38500

FcSDHFSTIE-N3-DBCO-PEG3-β60-74cit-lysineA488 (from UniProt P01857 104-330)
MFI [4]: 4340
MFI [5]: 4090
MFI [6]: 4590

FcSDHFSTIE-N3-DBCO-β60-74Cit (from UniProt P01857 104-330)
fluorescence (Macrophages) [2]: 1330
fluorescence (Macrophages) [3]: 1460

FcWT-N3-DBCO-β60-74Cit (from UniProt P01857 104-330)
fluorescence (Macrophages) [2]: 808
fluorescence (Macrophages) [3]: 1000

human IgG (antibody)
MFI of FcSDHFSTIE-N3-DBCO-A647 with competing IgG [8]: 36300
RATIO of FcSDHFSTIE-N3-DBCO-A647 with competing IgG [8]: 171
MFI of FcSDHFSTIE-N3-DBCO-A647 with competing IgG [9]: 20500
RATIO of FcSDHFSTIE-N3-DBCO-A647 with competing IgG [9]: 96.6
MFI of FcSDHFSTIE-N3-DBCO-A647 with competing IgG [10]: 38800
RATIO of FcSDHFSTIE-N3-DBCO-A647 with competing IgG [10]: 183
MFI of FcSDHFSTIE-N3-DBCO-A647 with competing IgG [11]: 29500
RATIO of FcSDHFSTIE-N3-DBCO-A647 with competing IgG [11]: 139
MFI of FcSDHFSTIE-N3-DBCO-A647 with competing IgG [12]: 37900
RATIO of FcSDHFSTIE-N3-DBCO-A647 with competing IgG [12]: 179
